# Publication PMC10767040, “Helical reconstruction of VP39 reveals principles for baculovirus nucleocapsid assembly” (Nature Communications, 2024)
# B1: Autographa californica multiple nucleopolyhedrovirus (AcMNPV) major capsid protein VP39 (natural protein)
# chain: MALVPVGMAPRQMRVNRCIFASIVSFDACITYKSPCSPDAYHDDGWFICNNHLIKRFKMSKMVLPIFDEDDNQFKMTIARHLVGNKERGIKRILIPSATNYQDVFNLNSMMQAEQLIFHLIYNNENAVNTICDNLKYTEGFTSNTQRVIHSVYATTKSILDTTNPNTFCSRVSRDELRFFDVTNARALRGGAGDQLFNNYSGFLQNLIRRAVAPEYLQIDTEELRFRNCATCIIDETGLVASVPDGPELYNPIRSSDIMRSQPNRLQIRNVLKFEGDTRELDRTLSGYEEYPTYVPLFLGYQIINSENNFLRNDFIPRANPNATLGGGAVAGPAPGVAGEAGGGIAV
# notes: VP39, the 39 kDa major capsid protein of Autographa californica multiple nucleopolyhedrovirus, as assembled in the nucleocapsid; the first 11 residues of the N terminus and the last 27 residues of the C terminus are unresolved in the model; The virus's own VP39 from the bacmid backbone; the decahistidine or FLAG tags were on unrelated human constructs, not on VP39; In the sample VP39 stood as …
# Molecular target: the molecule itself
# Experiment: cryo-EM structure; helical reconstruction (D14, rise 43.86 Å, twist -7.16°) of AcMNPV nucleocapsids purified from Sf9 cells, on graphene-coated grids; local reconstruction of four adjacent VP39 dimers
protein,measurement,value
B1,stoichiometry N,2
